One molecule from patent US9217036 (YALE UNIVERSITY, dated 2015) can be followed below.

The experiment addresses biotin-tagged amyloid-beta 42-amino acid (Aβ42) peptide, oligomer preparation. In words: conclusion from the cell binding studies on transfected COS-7 cells.

B1: full-length mouse PrP, cellular prion protein PrP^c (receptor)
chain: not shown
As to B1, the binding result is “binds”.
